Article PMC3089468 (Nucleic Acids Research, 2011)

Key:
Assay in all cases: two-hybrid
λCI_Arnt362 C308R = λCI_Arnt362 C308R (human, UniProt P27540 1-362, C308R)
λCI_Arnt362 L221H = λCI_Arnt362 L221H (human, UniProt P27540 1-362, L221H)
λCI_Arnt362 A339D = λCI_Arnt362 A339D (human, UniProt P27540 1-362, A339D)
λCI_Arnt362 V306D = λCI_Arnt362 V306D (human, UniProt P27540 1-362, V306D)
λCI_Arnt362 G341D = λCI_Arnt362 G341D (human, UniProt P27540 1-362, G341D)
λCI_Arnt362 M267K = λCI_Arnt362 M267K (human, UniProt P27540 1-362, M267K)
λCI_Arnt362 C265R = λCI_Arnt362 C265R (human, UniProt P27540 1-362, C265R)

Measured: β-gal activity relative to wt

λCI_Arnt362 M267K, sequence (P27540 1-362 M267K): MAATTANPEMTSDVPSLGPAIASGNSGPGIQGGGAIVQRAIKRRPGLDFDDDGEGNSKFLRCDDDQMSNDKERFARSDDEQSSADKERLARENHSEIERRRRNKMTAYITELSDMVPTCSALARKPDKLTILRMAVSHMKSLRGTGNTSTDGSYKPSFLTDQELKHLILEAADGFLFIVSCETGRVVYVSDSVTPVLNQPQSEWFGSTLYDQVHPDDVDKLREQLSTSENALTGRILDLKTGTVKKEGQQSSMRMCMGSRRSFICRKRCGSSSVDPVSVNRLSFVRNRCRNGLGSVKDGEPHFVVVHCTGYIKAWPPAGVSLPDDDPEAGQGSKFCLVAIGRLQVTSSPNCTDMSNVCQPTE
λCI_Arnt362 A339D, sequence (P27540 1-362 A339D): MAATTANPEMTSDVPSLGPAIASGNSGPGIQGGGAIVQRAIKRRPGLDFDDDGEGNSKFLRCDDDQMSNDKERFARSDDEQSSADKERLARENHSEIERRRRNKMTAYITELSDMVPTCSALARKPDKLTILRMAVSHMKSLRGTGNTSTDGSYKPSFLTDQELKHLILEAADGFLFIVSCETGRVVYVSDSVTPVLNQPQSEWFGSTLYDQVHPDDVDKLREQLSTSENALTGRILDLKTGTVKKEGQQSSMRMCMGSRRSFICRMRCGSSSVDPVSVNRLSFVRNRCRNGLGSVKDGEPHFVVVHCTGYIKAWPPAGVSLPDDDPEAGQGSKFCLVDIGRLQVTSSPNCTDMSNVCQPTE
λCI_Arnt362 L221H, sequence (P27540 1-362 L221H): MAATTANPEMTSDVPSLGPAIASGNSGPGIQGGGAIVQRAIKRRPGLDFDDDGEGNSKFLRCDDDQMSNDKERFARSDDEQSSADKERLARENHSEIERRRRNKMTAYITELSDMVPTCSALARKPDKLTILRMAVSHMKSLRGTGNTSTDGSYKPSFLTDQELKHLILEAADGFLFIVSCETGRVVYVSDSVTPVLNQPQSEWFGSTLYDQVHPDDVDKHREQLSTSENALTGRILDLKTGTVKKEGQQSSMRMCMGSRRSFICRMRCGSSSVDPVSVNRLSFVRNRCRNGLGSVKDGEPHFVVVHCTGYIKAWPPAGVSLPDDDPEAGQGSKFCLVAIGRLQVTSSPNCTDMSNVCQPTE
λCI_Arnt362 V306D, sequence (P27540 1-362 V306D): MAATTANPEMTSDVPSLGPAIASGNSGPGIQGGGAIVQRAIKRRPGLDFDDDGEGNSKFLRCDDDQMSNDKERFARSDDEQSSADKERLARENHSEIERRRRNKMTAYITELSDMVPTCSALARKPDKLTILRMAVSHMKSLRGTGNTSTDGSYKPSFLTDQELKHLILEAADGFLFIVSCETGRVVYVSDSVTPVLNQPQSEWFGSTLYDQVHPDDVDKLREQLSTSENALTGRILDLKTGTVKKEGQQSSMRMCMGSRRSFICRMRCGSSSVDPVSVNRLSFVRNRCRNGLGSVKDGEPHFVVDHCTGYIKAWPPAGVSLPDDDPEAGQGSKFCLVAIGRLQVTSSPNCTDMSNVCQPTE
λCI_Arnt362 C265R, sequence (P27540 1-362 C265R): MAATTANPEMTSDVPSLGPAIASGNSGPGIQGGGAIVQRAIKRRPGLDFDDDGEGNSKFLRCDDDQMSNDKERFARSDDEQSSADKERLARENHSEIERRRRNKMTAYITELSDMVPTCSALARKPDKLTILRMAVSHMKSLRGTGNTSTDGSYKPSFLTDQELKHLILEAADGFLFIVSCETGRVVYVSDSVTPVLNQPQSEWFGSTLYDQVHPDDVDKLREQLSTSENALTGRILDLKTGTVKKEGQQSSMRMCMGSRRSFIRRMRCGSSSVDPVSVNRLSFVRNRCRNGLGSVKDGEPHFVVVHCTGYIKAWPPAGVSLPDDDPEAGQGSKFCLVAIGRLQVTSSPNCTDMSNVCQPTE
λCI_Arnt362 G341D, sequence (P27540 1-362 G341D): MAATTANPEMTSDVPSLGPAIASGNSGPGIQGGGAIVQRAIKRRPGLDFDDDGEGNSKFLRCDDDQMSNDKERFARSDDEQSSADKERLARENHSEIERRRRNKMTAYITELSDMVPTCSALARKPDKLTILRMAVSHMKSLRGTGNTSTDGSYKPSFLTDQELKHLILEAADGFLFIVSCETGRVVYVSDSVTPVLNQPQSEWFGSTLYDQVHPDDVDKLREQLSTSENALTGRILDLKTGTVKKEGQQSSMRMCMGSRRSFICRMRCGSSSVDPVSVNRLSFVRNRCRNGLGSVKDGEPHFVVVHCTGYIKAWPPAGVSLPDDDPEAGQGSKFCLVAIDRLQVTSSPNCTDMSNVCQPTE
λCI_Arnt362 C308R, sequence (P27540 1-362 C308R): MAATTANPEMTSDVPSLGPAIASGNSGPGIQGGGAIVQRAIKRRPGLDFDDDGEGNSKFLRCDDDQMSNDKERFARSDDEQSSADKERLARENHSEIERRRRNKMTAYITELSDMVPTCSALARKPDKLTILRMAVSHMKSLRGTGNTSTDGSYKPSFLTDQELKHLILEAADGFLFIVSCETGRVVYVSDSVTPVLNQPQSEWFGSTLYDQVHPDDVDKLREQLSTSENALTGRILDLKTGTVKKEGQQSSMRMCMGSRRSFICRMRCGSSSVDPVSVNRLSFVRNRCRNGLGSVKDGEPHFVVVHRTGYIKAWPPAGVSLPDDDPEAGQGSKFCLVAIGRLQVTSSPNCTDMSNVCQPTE

B1: RNAPα_AhR278 (domain or fragment, mouse, UniProt P30561 1-278, looked up)
chain: MSSGANITYASRKRRKPVQKTVKPIPAEGIKSNPSKRHRDRLNTELDRLASLLPFPQDVINKLDKLSVLRLSVSYLRAKSFFDVALKSTPADRNGGQDQCRAQIRDWQDLQEGEFLLQALNGFVLVVTADALVFYASSTIQDYLGFQQSDVIHQSVYELIHTEDRAEFQRQLHWALNPDSAQGVDEAHGPPQAAVYYTPDQLPPENASFMERCFRCRLRCLLDNSSGFLAMNFQGRLKYLHGQNKKGKDGALLPPQLALFAIATPLQPPSILEIRTKN
47 % of wt activity: λCI_Arnt362 G341D
< 60 % of wt β-gal activity: all other assays above
